The nature of this series: soluble on expression in E. coli; label from the status in PepcDB or PDB records.
As for “MVGGMMESYSKFHTILNELKHSAAQFDRQRGEHHRPLFDEVLFHCHGKLLTPCVEEAHSTLQALIREKESGRLTALRAEYLSERLLAQIAALTRELSTQNVRRNEPKPHAYFKKPINELYQELAQHQDWERRLMDLVRDKALLLEQASATEKAAAQQALLQSEQRLNRCREAKIKIEKRITTQERKA”, the “soluble on expression in E. coli” value is listed as “not soluble”.

Take “MLCSRYFTSSLFLWGEALPTLLEEFLNEVEKMLKNQVNTRRIHQLLKELDDPLLENKDLEEKLQAFLDYVKEIPNLPEARKRYRIQKSLEMIEKLRSWFLIDYLECSGEEVDLSTDIQYAKGVGPNRKKKLKKLGIETLRDLLEFFPRDYEDRRKIFKLNDLLPGEKVTTQGKIVSVETKKFQNMNILTAVLSDGLVHVPLKWFNQDYLQTYLKQLTGKEVFVTGTVKSNAYTGQYEIHNAEVTPKEGEYVRRILPIYRLTSGISQKQMRKIFEENIPSLCCSLKETLPERILEKRKLLGVKDAYYGMHFPKTFYHLEKARERLAYEELFVLQLAFQKIRKEREKHGGIPKKIEGKLAEEFIKSLPFKLTNAQKRAHQEIRNDMISEKPMNRLLQGDVGSGKTVVAQLAILDNYEAGFQTAFMVPTSILAIQHYRRTVESFSKFNIHVALLIGATTPSEKEKIKSGLRNGQIDVVIGTHALIQEDVHFKNLGLVIIDEQHRFGVKQREALMNKGKMVDTLVMSATPIPRSMALAFYGDLDVTVIDEMPPGRKEVQTMLVPMDRVNEVYEFVRQEVMRGGQAFIVYPLIEESDKLNVKSAVEMYEYLSKEVFPEFKLGLMHGRLSQEEKDRVMLEFAEGRYDILVSTTVIEVGIDVPRANVMVIENPERFGLAQLHQLRGRVGRGGQEAYCFLVVGDVGEEAMERLRFFTLNTDGFKIAEYDLKTRGPGEFFGVKQHGLSGFKVADLYRDLKLLEWAREDVQEIDVEGIELPEEIKLIEVG”: the “soluble on expression in E. coli” value is “soluble”.

In the case of “DYVGGCLDFRPEEGIFRIARDMFTEPELFDLEMELIFEKNWIYACHESELARPHDFVTLRAGRQPLIVTRDGNGQLHALVNACQHRGATLVRVGKGNQSTFTCPFHAWCYKNDGRLVKVKAPGEYPEGFDKATRGLKKARIQSYRGFVFVSLDVAGEDDLVDFLGDARVFLDMLVAQSPSGELEVLPGTSTYTYEGNWKLQNENGLDGYHVSTVHYNYVATVQHRQQVEAERGGVAATLDYSKLGAGDAATDDGWFSFANGHSVLFSEMPNPAVRPGYASVMPRLVAEYGQARAEWMMHRLRNLNLYPSLFVIDQISSQLRIVRPLAWNRTEIVSQCIGVKGESDADRENRIRQFEDFFNVSGMGTPDDLVEFREAQRGFQARLERWSDISRGHGKWLEGATPNSQALGIAPLLTGTEITHEGLYVNQHAHWRRFLLDGLERLALRA”, the “soluble on expression in E. coli” value is “not soluble”.

In the case of “MRVAVVGATGAVGREILKVLEARNFPLSELRLYASPRSAGVRLAFRGEEIPVEPLPEGPLPVDLVLASAGGGISRAKALVWAEGGALVVDNSSAWRYEPWVPLVVPEVNREKIFQHRGIIANPNCTTAILAMALWPLHRAFQAKRVIVATYQAASGAGAKAMEELLTETHRFLHGEAPKAEAFAHPLPFNVIPHIDAFQENGYTREEMKVVWETHKIFGDDTIRISATAVRVPTLRAHAEAVSVEFARPVTPEAAREVLKEAPGVEVVDEPEAKRYPMPLTASGKWDVEVGRIRKSLAFENGLDFFVVGDQLLKGAALNAVQIAEEWLKGA”, the “soluble on expression in E. coli” value is “soluble”.

With “MGSDKIHHHHHHMERAGLAALEDALRNGLSEPFCKAIETIGQSNGRLIITGVGKSGHIGAKLAATFASTGTPAFFVHAAEANHGDLGMIGGDDVVLAISKGGESAELRSIINYSRRFSIPLIALTCSENSSLARASDIVLLVPNEQEACPLGLAPTTSTLMQLALGDALAVALLEARNFTAGDFKVFHPGGKLGASLTLVSDIMHTGDRVPLVNKGTAMPEAVGVLSRKHFGCVGILDEDGRLCGIVTEGDMARNLSRNLAELVVDDIMTRSPKTVKKSVLATSALATLEKFHIGALIVVDDDNRPIGLVHFHDLLRIGVA”, the “soluble on expression in E. coli” value was “not soluble”.

As for “MAHHHHHHMAECSGVADDDTTKKLLLEGDSALRQGRSYYQEALAKYTEALTHNPNSIRGLYSRAELLSMLRRRDACMSDLDQLLKLDSKHQRGLVLRSALYSQAGQLKEAVRDVEKLVEVMSEGGKAAKVQEYKAKLQQLRRYAEVWIPLQLKLQAAKQGAVTLSRDEQCACVGFLHDMIREFAKDNAGLRLQRAECALACGDNQAASEELKYVVQREPQNLDAVALGARALRALGALEQARRELRRCLSLDPEFALCAQLHKLVREQIRVTQGVEKALEEKDYGKVLKLIEGAMRFEENPPYKDQLLRWRCDAAVGMQDTKDGLPACDEAIQLYSPEDPTVVSILLQKLELYLMDGNVERAEEMLQRAQQLQPNDGKVNEYKRKMERIKRVGLRKNYYKILGVKKTADSSEIRRAYRHLAKTFHPDKLASQELSKEERAEADKRFRDINEAKEILLDDEKRARYDNGEDPTKPPGQDEHAFHGQPFNFPNEMFGQGGRFQQFYFHFD”, the “soluble on expression in E. coli” value is reported as “not soluble”.

Turning to “MKRIPYALVDVFAPAPGAGNRVAVVLDARGMSPEEMQAVAQSLGAAEAAFLLERTGAALSVRFFAPGGEVEFSGHAAVAVGLTAARTGLVPEGTTRLYLHTPTEVLPVELVLEAGEPRKAWVRGPAPRFRDLPPYRALREVLEALGSDERYLHRGLPYGVAFTGLWSLFVPLIAPGVVDALEPEMERLKALCFRLDVATVHAYAPMGPRSFYARDFAPLLGIPEDPVTGSANAALGALLARAGVVPRREGKVLLTVYQGHHLGNPGVVEVQVEYSPTGEPYSVQIGGEAVIVQTGEV”, the “soluble on expression in E. coli” value was “soluble”.

Consider “MSTMQTELIIVSEYCQKCHIEPSFIEMLEEGGLINVRTEAGKHYLLVSELPNVERYSRMYYDLSINMEGIDAIHHMLERMDDMRREITSLRKQLLLFREREIEEADW”, for which the “soluble on expression in E. coli” value is on record as “not soluble”.

Turning to “MNAGKEFNYYTYQSDSSQGSLQKAPDENTDYFTHKMNSYLPFDMSTLYANQPTEKIQILQEIYDTERTYVKALTIVDEIFIQQLNLWCPKSKKCFRSMFGEISAICKTHQILLESLQCKPIAEVFTKFVPFLKLYTSYASHYPNSLKIFAKLMSRNDFRKALTKIEEDPRVDGKKLQTYLIMPIQRIPRYIMLIQNLMNYSTEKDDMTNLYKALSGMQGLSDQIQSCMTAYENGERLLQIQLNFGLDGHILEPGRVLLKEGMLYKRELNGSANYQETVVFLFNDILLYGIKRISVMPLCKYEPSAILSLRHCIVQLDDIGGSIFIRCGDVGVDFTAYSLGGVTEWYNEICDAIDNAKKLRDTLRKESFKQKSLIFDKGFWQRNRDKLRNMITADMTGNISRVLTRKKPAPKLEESDFLRGQWTTSTIASNQRKRKVATLEDEEEDVFNMLSSPNLSQRKRKATLQENTPSGVGWTASPRSSSFRKRRASTLRNKNADVTDGNNYLSHLVLNDVTMTQPYTGLNAFVGTPKSRTPTDDDYDSDRDYVWTDDEEFVSDDKKIPIRRVASYDEEDRRPRDFSEVRRSVASEPPRRHLAVDDIRKLSYQQRSLEPFNMVTEDDDEDDIIDIKVKGERPRPWWETESAPPAIKNQKSSIIDSIRNSCAIM”, the “soluble on expression in E. coli” value was “not soluble”.

Regarding “MSLKVGVALSGGVDSAVALYLLLKEGHEVKAFHMKTKEDEFFIKKEIKKKVCCSPSDTADAMRIAHFLGVEIEIVDVKEIFREKVIEPFKRDLLKGLTPNPCAHCNRFVKFGYLMDYVLNQGFDAFASGHYARIEFSEKYGRKVIKKGVDLKKDQSYFLARIEPWRIERLIFPNGIYTKEEIRKIAEEAGIHVAKKQESQDVCFIPDGSIENFLKDEGITLKDGDIITPEGEVVGRHFGYPLYTIGQRKGFKIEKFGRRYYVRGKIPEKNVVVVSDLEDVFFSGLIAEDPVWHVEVPEEFRCVCRVRKKSEEAPAVVKVKDNEVEVSFEKKVFAVTPGQIAAFYDGDTLLGGAIIKEGIREGHHHHHH”, the “soluble on expression in E. coli” value is listed as “soluble”.

In the case of “MVKLENSRKPEKISNKNIPMSDFVVNLDHGDPTAYEEYWRKMGDRCTVTIRGCDLMSYFSDMTNLCWFLEPELEDAIKDLHGVVGNAATEDRYIVVGTGSTQLCQAAVHALSSLARSQPVSVVAAAPFYSTYVEETTYVRSGMYKWEGDAWGFDKKGPYIELVTSPNNPDGTIRETVVNRPDDDEAKVIHDFAYYWPHYTPITRRQDHDIMLFTFSKITGHAGSRIGWALVKDKEVAKKMVEYIIVNSIGVSKESQVRTAKILNVLKETCKSESESENFFKYGREMMKNRWEKLREVVKESDAFTLPKYPEAFCNYFGKSLESYPAFAWLGTKEETDLVSELRRHKVMSRAGERCGSDKKHVRVSMLSREDVFNVFLERLANMKLIKSIDL”, the “soluble on expression in E. coli” value is “soluble”.

Turning to “MGISSSAPESLGFDTVLPPHLRQHSHPPAGISPKRFLCRDLWPAELPSPAVSSAVSGPTWPEGISAPVFGKQTHVPQRTGSQDCHSCDPTLPEWERKIPP”, the “soluble on expression in E. coli” value was “not soluble”.

Consider “MDYWEWKTDGAGLEADEVCITVQHGVTLYDKNEKTQRQNGKLSLTTHHLRYNDEADISTVLQLPLELVRRSGQAPSISSGFGPFSSAKIIVPLPKNAYVKLSFRSGGVDNFYAALVGALKKKTWLQTKTEAAASGRGSSSGASPASTTPVPNSRPPPPVPRGFGIAGVQQASLQSAAMSETLKDIDDVMNKASKLVNNIRRLRERSEAAAAAGSDAGSETAVERTTIESIESTLGLGAIVTRNHSNGSDSRFYRDLAVEMHTWMTHECNSKLFNDMPVVPLIELFALYNKARGGDLVSPLDVLNACTYMAAKMSSSCYDLVTLPSGRKALVNRDDSLLLAKLTTVLGPQLVNSKGSPVQDAWTKTSSQQQQRSGDASSLVRVSTTSDFPKASRDLKSVSDVSLAEKMQVATEVAADILTLLMLKGYLCCMDTGFDCYVYTWNIFVF”, for which the “soluble on expression in E. coli” value is “not soluble”.

Regarding “MFVVAVANTKGGCGKTTLATHLAASFACRGYATGLADLDRQKSALGWLKRRPEGAAPIQGINLAREEDIPEGIERLVVDAAAAMDKDVVKDIVRRADLVVVPVLPGVFDEDGTARFVGHLESLKSIRKNRRDVAFVANRVRLNTRALTRLGGFLEELSFPVIARLRDTQHYTAAAAEGLSLFDLPGGRAADYRAEWTPLLDFIEIRVRG”, the “soluble on expression in E. coli” value was “soluble”.

As to “MTVPIAIIGTGIAGLSAAQALTAAGHQVHLFDKSRGSGGRMSSKRSDAGALDMGAQYFTARDRRFATAVKQWQAQGHVAEWTPLLYNFHAGRLSPSPDEQVRWVGKPGMSAITRAMRGDMPVSFSCRITEVFRGEEHWNLLDAEGQNHGPFSHVIIATPAPQASTLLAAAPKLASVVAGVKMDPTWAVALAFETPLQTPMQGCFVQDSPLDWLARNRSKPERDDTLDTWILHATSQWSRQNLDASREQVIEHLHGAFAELIDCTMPAPVFSLAHRWLYARPAGAHEWGALSDADLGIYVCGDWCLSGRVEGAWLSGQEAARRLLEHLQLEHHHHHH”, the “soluble on expression in E. coli” value was “soluble”.

For the sequence “MCIAAWVWQAHPQHQLLLLLNRDEFHSRPTKAVGWWGEGSKKILGGRDVLGGGTWMGCTKDGRLAFLTNVLEPDAMPGARTRGDLPLRFLQSNKSPLEVATEVAKEADEYNGFNLVLADLTTNVMVYVSNRPKGQPATIQLVSPGLHVLSNARLDSPWQKAIRLGKNFREHLRKHGDDEVEAKDIVERLMTDTTKADKDRLPNTGCDPNWEHGLSSIFIEVQTDQGLYGTRSTAVLSVNYDGEASLYEKYLESGIWKDHTVHYQIE”, the “soluble on expression in E. coli” value is reported as “soluble”.

Turning to “MGSDKIHHHHHHMFMVKITILSPEGRSCSVWSLKNEIEKLGAKCDIFLLSSPENLMSHDFKLETDLIHSRCGIGDYFDRLTLYSWQFINALEVEGCRFINPIKTLYLTSDKFKCIKLLAKNKIKTPKTALIRDYEDAVKFIEKYNLRFPVVIKNSFSKCGLKVFMARNYDELKQLTKNAIWEGKLIQEFIDFKENDLYRDMRILVVDGEVVGGYRRVSRDFRTNLYLGNVVEKLNIDEELEELALKCADLSEAVILGVDILPTKDNYYVIELNSSPGTKGFRDIGINADKKIAEALVRYAKS”, the “soluble on expression in E. coli” value is “not soluble”.

These data come from the DeepSol protein solubility set.
